Reference: patent US20260216242A1 (ALMAC DISCOVERY, published 2026)
Residue numbers refer to the chain shown, from its start. Names and notes keep the numbering of the source. Blank lines part the entries; values can stand above or below the binder they belong to.

Molecular target: T1, Human ALPP (leucine zipper) (human)
T1 construct: Soluble human ALPP fused to a disulphide stabilised leucine zipper and a His tag; The whole entry is the construct; also called hALPP; PLAP
T1 chain: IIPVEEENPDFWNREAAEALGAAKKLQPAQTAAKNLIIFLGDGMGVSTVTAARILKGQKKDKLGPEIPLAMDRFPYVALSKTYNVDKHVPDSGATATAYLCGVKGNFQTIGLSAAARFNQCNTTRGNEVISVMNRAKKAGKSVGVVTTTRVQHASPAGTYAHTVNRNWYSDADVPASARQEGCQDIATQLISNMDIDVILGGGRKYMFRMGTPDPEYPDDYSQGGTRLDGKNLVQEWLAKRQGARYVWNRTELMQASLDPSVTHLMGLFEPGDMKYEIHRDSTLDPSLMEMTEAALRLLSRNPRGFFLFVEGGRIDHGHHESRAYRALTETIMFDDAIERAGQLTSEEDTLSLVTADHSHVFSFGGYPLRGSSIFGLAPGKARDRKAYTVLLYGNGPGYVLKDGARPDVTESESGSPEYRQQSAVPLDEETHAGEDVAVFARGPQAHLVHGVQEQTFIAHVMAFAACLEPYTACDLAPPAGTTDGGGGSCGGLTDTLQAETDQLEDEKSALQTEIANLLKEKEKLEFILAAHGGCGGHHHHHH
Assay: BLI, KD app (antigen immobilised on AR2G sensor)
Method: Binding kinetics were determined using the Biolayer Interferometry (BLI) Octet K2 or R4 system (Sartorius). […] For KD apparent measurements, the ALPP proteins were immobilised in sodium acetate pH5 buffer to AR2G sensors using amine coupling. To measure 1:1 interactions, AHC biosensors were used to immobilise Fc-fused proteins. All assays were conducted in HBS-EP with a plate temperature of 25° C. Ka (M⁻¹s⁻¹), Kd (s⁻¹) and KD (nM) values were determined using Octet Data Analysis High Throughput software (Sartorius) for Biolayer Interferometry.

B1: D10 A06-hFc (S239C + S442C), [G4S]1 linkers (Fc fusion)
chain 1: QVQLVESGGGLVQPGGSLRLSCAASGSIFSVNTMGWYRQAPGKQRDLVAVATSGGTIHYADSVKGRFTISRDNAKNTVYLQMNSLKPEDTAVYYCNLVVPYGMIAGDHDYWGQGTKVTVSSGGGGSEPKSSDKTHTCPPCPAPELLGGPCVFLFPPKPKDTLMISRTPEVTCVVVDVSHEDPEVKFNWYVDGVEVHNAKTKPREEQYNSTYRVVSVLTVLHQDWLNGKEYKCKVSNKALPAPIEKTISKAKGQPREPQVYTLPPSRDELTKNQVSLYCLVKGFYPSDIAVEWESNGQPENNYKTTPPVLDSDGSFFLYSKLTVDKSRWQQGNVFSCSVMHEALHNHYTQKSLCLSPGK
chain 2: QVHLVESGGGLVQAGGSLRLSCAASGRTFLSMGWFRQAPGKEREFVAAISWTGGSTGYADSVKGRFTISRESDKETMYLQMNSLKPEDTAVYYCAARGDVYYGGDDATRYKYWGQGTQVTVSSGGGGSEPKSSDKTHTCPPCPAPELLGGPCVFLFPPKPKDTLMISRTPEVTCVVVDVSHEDPEVKFNWYVDGVEVHNAKTKPREEQYNSTYRVVSVLTVLHQDWLNGKEYKCKVSNKALPAPIEKTISKAKGQPREPQVYTLPPSRDELTKNQVSLTCLVKGFYPSDIAVEWESNGQPENNYKTTPPVLDSDGSFFLTSKLTVDKSRWQQGNVFSCSVMHEALHNHYTQKSLCLSPGK
notes: Biparatopic heterodimer; also called #666
- Kd: < 0.01 nM
- kon: 332000 M⁻¹ s⁻¹

B2: D10 A06-hFc (S239C + S442C), mixed linkers (D10 - [G4S]1, A06 - [G4S]3) (Fc fusion)
chain 1: B1 chain 1
chain 2: QVHLVESGGGLVQAGGSLRLSCAASGRTFLSMGWFRQAPGKEREFVAAISWTGGSTGYADSVKGRFTISRESDKETMYLQMNSLKPEDTAVYYCAARGDVYYGGDDATRYKYWGQGTQVTVSSGGGGSGGGGSGGGGSEPKSSDKTHTCPPCPAPELLGGPCVFLFPPKPKDTLMISRTPEVTCVVVDVSHEDPEVKFNWYVDGVEVHNAKTKPREEQYNSTYRVVSVLTVLHQDWLNGKEYKCKVSNKALPAPIEKTISKAKGQPREPQVYTLPPSRDELTKNQVSLTCLVKGFYPSDIAVEWESNGQPENNYKTTPPVLDSDGSFFLTSKLTVDKSRWQQGNVFSCSVMHEALHNHYTQKSLCLSPGK
notes: Biparatopic heterodimer; also called #702
- Kd: < 0.01 nM
- kon: 343000 M⁻¹ s⁻¹

B4: D10 E10-hFc (S239C + S442C), [G4S]1 linkers (Fc fusion)
chain 1: B1 chain 1
chain 2: QVQLVESGGGLVQAGGSLRLSCAVSGRALSDYNIGWFRQAPGKEREFVARKTWDGSSTRYDDSVKGRFTVSIEDAKNTAYLQMSSLKTEDTAVYYCAAGRYSRARGWEYDYWGQGTQVTVSSGGGGSEPKSSDKTHTCPPCPAPELLGGPCVFLFPPKPKDTLMISRTPEVTCVVVDVSHEDPEVKFNWYVDGVEVHNAKTKPREEQYNSTYRVVSVLTVLHQDWLNGKEYKCKVSNKALPAPIEKTISKAKGQPREPQVYTLPPSRDELTKNQVSLTCLVKGFYPSDIAVEWESNGQPENNYKTTPPVLDSDGSFFLTSKLTVDKSRWQQGNVFSCSVMHEALHNHYTQKSLCLSPGK
notes: Biparatopic heterodimer; also called #668
- Kd: < 0.01 nM
- kon: 374000 M⁻¹ s⁻¹

B5: D10 E06-hFc (S239C + S442C), [G4S]1 linkers (Fc fusion)
chain 1: B1 chain 1
chain 2: QVHLVESGGGLVQAGGSLRLSCAASRRSFSEYAMGWFRQAPGKEREFVAAIGWSGVIEYADSVKGRFTISRDNAKDTVYLQMNSLKPEDTAVYYCAAGLGIRVVSQTPAYWGQGTQVTVSSGGGGSEPKSSDKTHTCPPCPAPELLGGPCVFLFPPKPKDTLMISRTPEVTCVVVDVSHEDPEVKFNWYVDGVEVHNAKTKPREEQYNSTYRVVSVLTVLHQDWLNGKEYKCKVSNKALPAPIEKTISKAKGQPREPQVYTLPPSRDELTKNQVSLTCLVKGFYPSDIAVEWESNGQPENNYKTTPPVLDSDGSFFLTSKLTVDKSRWQQGNVFSCSVMHEALHNHYTQKSLCLSPGK
notes: Biparatopic heterodimer
- Kd: 0.048 nM
- kon: 271000 M⁻¹ s⁻¹

B6: A06 E06-hFc (S239C + S442C), [G4S]1 linkers (Fc fusion)
chain 1: B1 chain 2 with T279Y, T320Y
chain 2: B5 chain 2
notes: Biparatopic heterodimer; also called #671
- Kd: 0.0202 nM
- kon: 602000 M⁻¹ s⁻¹

B7: A06 E10-hFc (S239C + S442C), [G4S]1 linkers (Fc fusion)
chain 1: B1 chain 2 with T279Y, T320Y
chain 2: B4 chain 2
notes: Biparatopic heterodimer
- kon: 516000 M⁻¹ s⁻¹

The remaining lines, values ahead:

- Kd: 0.11 nM
- kon: 465000 M⁻¹ s⁻¹
B3: D10 E06-hFc (S239C + S442C), mixed linkers (D10 - [G4S]1, E06 - [G4S]3) (Fc fusion)
chain 1: B1 chain 1
chain 2: QVHLVESGGGLVQAGGSLRLSCAASRRSFSEYAMGWFRQAPGKEREFVAAIGWSGVIEYADSVKGRFTISRDNAKDTVYLQMNSLKPEDTAVYYCAAGLGIRVVSQTPAYWGQGTQVTVSSGGGGSGGGGSGGGGSEPKSSDKTHTCPPCPAPELLGGPCVFLFPPKPKDTLMISRTPEVTCVVVDVSHEDPEVKFNWYVDGVEVHNAKTKPREEQYNSTYRVVSVLTVLHQDWLNGKEYKCKVSNKALPAPIEKTISKAKGQPREPQVYTLPPSRDELTKNQVSLTCLVKGFYPSDIAVEWESNGQPENNYKTTPPVLDSDGSFFLTSKLTVDKSRWQQGNVFSCSVMHEALHNHYTQKSLCLSPGK
notes: Biparatopic heterodimer; also called #703

- kon: 422000 M⁻¹ s⁻¹
B8: A06 F05-hFc (S239C + S442C), [G4S]1 linkers (Fc fusion)
chain 1: B1 chain 2 with T279Y, T320Y
chain 2: B4 chain 2 with V24A, L29F, S30G, K51R, E73D, D74N, S84N, A104V

- Kd: < 0.01 nM
- koff: < 1e-07 s⁻¹
- kon: 430000 M⁻¹ s⁻¹
B9: D10 F05-hFc (S239C + S442C), [G4S]1 linkers (Fc fusion)
chain 1: B1 chain 1
chain 2: B4 chain 2 with V24A, L29F, S30G, K51R, E73D, D74N, S84N, A104V
notes: Biparatopic heterodimer; also called #669
